Laboratory results from patent publication US20260224724A1, “GLYCOSYNTHASE VARIANTS FOR ANTIBODY-DRUG CONJUGATE ENGINEERING” (OBI Pharma, Inc., priority 2022, published 2026).

How the values were obtained:
Herceptin-GlcNAc-F = experiment: Transglycosylation of glycan-oxazoline to fucosylated Herceptin-GlcNAc-F, monitored by HPLC; assay type: biochemical; conditions: for GlcNAc(F) (unreacted acceptor) / 1N-G2S2 (hemi-glycosylated) / 2N-G2S2 (fully glycosylated, Herceptin-2N-G2S2F): NSCT-oxa, best conditions; for 1N-G2S2 (hemi-glycosylated) / 2N-G2S2 (fully glycosylated, Herceptin-2N-G2S2F) / 1N-Glycan / 2N-Glycan / GlcNAc(F): acceptor Herceptin-GlcNAc-F
Protocol: (§1) In general procedures, mAb-GlcNAc/mAb-GlucNAc-F (5 mg) was incubated with glycan-oxa with molar ratio 1:20 and 1:150 (mAb-GlcNAc:NSCT-oxa) by EndoSz-D234M (167 μg) or EndoSd-D232M (1002 μg), respectively, at 30° C. for 20 minutes in a MOPS buffer (50 mM, pH 6.7), to final volume 500 μL. There were some slight modifications according to experiment purposes and designs (see result section). HLPC was employed to monitor the transglycosylation efficiency.
(§2) The glycosynthase activity was analyzed by HPLC (Waters e2695) using 2.1×150 mm UPLC Glycoprotein Amide Column (Waters) under two different buffers (Buffer A, ddH2O/0.3% v/v HFIP (1,1,1,3,3,3-Hexafluoro-2-propanol), 0.1% v/v TFA; Buffer B, ACN, 0.3% v/v HFIP, 0.1% v/v TFA) with the gradient as Table 4.
(§3) After ensuring the baseline stability by injection water blank, the process was started by 2 μL sample injection. In the process duration (29 mins), the flow rate was 0.2 mL/min under the column temperature of 65° C. and sample tray temperature of 5° C.

Herceptin-GlcNAc = experiment: Transglycosylation of glycan-oxazoline to Herceptin-GlcNAc, monitored by HPLC; assay type: biochemical; conditions: for 1N-G2S2 (hemi-glycosylated) / 2N-G2S2 (fully glycosylated) / GlcNAc(F) (unreacted acceptor) / 1N-Glycan / 2N-Glycan / GlcNAc(F): acceptor Herceptin-GlcNAc; for 1N-G2S2 (hemi-glycosylated) / 2N-G2S2 (fully glycosylated) / GlcNAc(F) (unreacted acceptor): NSCT-oxa, best conditions (20:1 EndoSz-D234M, 150:1 EndoSd-D232M)
Protocol: as §1, §2, §3

B1: EndoSd-D232M: D232M glycosynthase mutant of EndoSd from Streptococcus dysgalactiae subsp. Dysgalactiae, SEQ ID NO 1 (protein, listed as Streptococcus dysgalactiae)
chain: MGTILGTHHDSLISVKAEEKITQVSQTSTSIDDLHYLSENSKKEFKEELSKEKVPEKVKEILSKAQQANKQAQELAEMKVPDKIPMKPLNGPLYGGYFRTWHDKTSDPLEKDKVNSMGELPKEVDLAFVFHDWTKDYSLFWKELATKHVPKLNKQGTRVIRTIPWRFLAGGDNSGIAEDASKYPNTPEGNKALAKAIVDEYVYKYNLDGLDVMIEHDSIPKVNGEASDENLKRSIDVFEEIGKLIGPKGADKSRLFIMDSTYMADKNPLIERGAPYIDLLLVQVYGSQGEQGEFQNDTKSVTKTPEERWQGYSKYIRPEQYMIGFSFYEEKAGSGNLWYDINARKDEDTANGINDDITGTRAERYARWQPKTGGVKGGIFSYAIDRDGVAHQPKQIAEKDKQSVKNNRPLISEITDNIFHSNYSVSKTLKTVMLKDKAYDLIDEKDFPDKALREAVMAQVGTRKGDLERFNGTLRLDNPAIQSLEGLNKFKKLAQLDLIGLSRIIKLDQSVLPANMKPGKDPLETVLETYKKNGKEEPAIIPPVSLTVSGLTGLKELDLSGFDRETLAGIDAATLTSLEKVDISDNKLDLAPKTENRQIFDVMLSTVNNNAGISEQSIKFDNQKPAGNYPQTYGATNLQLPVRQEKIDLQHQLLFGTITNQGTLINSEADYKTYRNQKIAGRNFVDPDYPYNNFKVSHDNYTVKVTDSTLGTTTDKMLATDKEETYKVDFFSPTDKTKAVHTAKVIVGDEKTMMVNLAEGATVIKSENDENAQKVFNGIMEYNPLSFNNKSSIIFEIKDPSLAKYWRLFNDSSKDKKDYIKEAKLEVFTGQLNAEADVKTILEKPDNWVTVSTYSGEEKVFSHSLDNISAKYWRVTVDNKKDQYGYVSLPELQILGYPLPNADTIMKTVTVAKELSQQKDKFPQQLLDESTAKEAVVEASLNSKLFDTGVINTNVEALKNVVDECLAYEKNKETAFKATEDYRAAVNGVKAESVTVEEMAQLKDLIGKAAHLNSKIDAKLADREYDKDLLGLIGELTNITRTVKSFVKHHHHHH
- GlcNAc(F) (unreacted acceptor) (Herceptin-GlcNAc-F): 0%
- 1N-G2S2 (hemi-glycosylated) (Herceptin-GlcNAc-F): 3.17%
- 2N-G2S2 (fully glycosylated, Herceptin-2N-G2S2F) (Herceptin-GlcNAc-F): 94.75%
- Relative transglycosylation activity of EndoSd mutants (Herceptin-GlcNAc; EndoSd-D232M set to 100%, NSCT-oxa donor, best conditions): 100%
- 1N-G2S2 (hemi-glycosylated) (Herceptin-GlcNAc): 2.11%
- 2N-G2S2 (fully glycosylated) (Herceptin-GlcNAc): 97.88%
- GlcNAc(F) (unreacted acceptor) (Herceptin-GlcNAc): 0%
- Herceptin-2N-G2S2 generated (Herceptin-GlcNAc; molar ratio 20:1 (NSCT-oxa/antibody), final condition of EndoSz-D234M): 46.06%

B2: EndoSz-D234M: D234M glycosynthase mutant of EndoSz from Streptococcus equi subsp. Zooepidemicus Sz105, SEQ ID NO 2 (protein, listed as Streptococcus equi)
chain: MVAILAAQHDSLIRVKAEDKLVQTSPSVSAIDALHYLSENSKKEFKEELSKVEKAQPEKLKEIVSKAQQADKQAKTLAEMKVPEKIPMKPLKGPLYGGYFRTWHDKTSDPAEKDKVNSMGELPKEVDLAFVFHDWTKDYSLFWQELATKHVPTLNKQGTRVIRTIPWRFLAGGDHSGIAEDAQKYPNTPEGNKALAKAIVDEYVYKYNLDGLDVMIERDSIPKVNKEESKEGIERSIQVFEEIGKLIGPKGADKSRLFIMDSTYMADKNPLIERGAPYIDLLLVQVYGTQGEKGGFDNANHKAVDTMEERWESYSKYIRPEQYMVGFSFYEEKANSGNLWYDVNVEDDTNPNIGSEIKGTRAERYAKWQPKTGGVKGGIFSYGIDRDGVAHPKKNGPKTPDLDKIVKSDYKVSKALKKVMENDKSYELIDQKDFPDKALREAVIAQVGSRRGNLERFNGTLRLDNPDIKSLEGLNKLKKLAKLELIGLSQITKLDSSVLPENIKPTKDTLVSVLETYKNDDRKEEAKAIPQVALTISGLTGLKELNLAGFDRDSLAGIDAASLTSLEKVDLSSNKLDLAAGTENRQILDTMLATVTKHGGVSEKTFVFDHQKPTGLYPDTYGTKSLQLPVANDTIDLQAKLLFGTVTNQGTLINSEADYKAYQEQEIAGHRFVDSSYDYKAFAVTYKDYKIKVTDSTLGVTDHKDLSTSKEETYKVEFFSPINSTKPVHEAKIVVGEEKTMMVNLAEGATIIGGDADPTNAKKVFDGLLNNDTTTLSTSNKASIIFELKEPGLVKHWRFFNDSKISKADYIKEAKLEAFVGHLEDSSKVKDSLEKSTEWVTVSDYSGEAQEFSQPLNNIGAKYWRITIDNKKSQYGYVSLPELQIIGHRLPEAATVMTTMAAAEELSQQKDKFSQEQLKELEVKVAALKAALDNKMFNADTINASFADVKAYIDKLLADAAGKKTLGKATKEAQPVATDAKEKAESENPKADHHHHHH
- GlcNAc(F) (unreacted acceptor) (Herceptin-GlcNAc-F): 1.72%
- 1N-G2S2 (hemi-glycosylated) (Herceptin-GlcNAc-F): 4.00%
- 2N-G2S2 (fully glycosylated, Herceptin-2N-G2S2F) (Herceptin-GlcNAc-F): 94.29%
- 1N-Glycan (Herceptin-GlcNAc-F; glycan type G0F): 2.45%
- 2N-Glycan (Herceptin-GlcNAc-F; glycan type G0F): 97.55%
- GlcNAc(F) (Herceptin-GlcNAc-F; glycan type G0F): 0.00%
- 1N-Glycan (Herceptin-GlcNAc-F; glycan type G2F): 2.64%
- 2N-Glycan (Herceptin-GlcNAc-F; glycan type G2F): 97.14%
- GlcNAc(F) (Herceptin-GlcNAc-F; glycan type G2F): 0.21%
- 1N-Glycan (Herceptin-GlcNAc-F; glycan type M3F): 4.95%
- 2N-Glycan (Herceptin-GlcNAc-F; glycan type M3F): 94.44%
- GlcNAc(F) (Herceptin-GlcNAc-F; glycan type M3F): 0.62%
- Relative transglycosylation activity of EndoSz mutants (Herceptin-GlcNAc; EndoSz-D234M set to 100%, NSCT-oxa donor, best conditions): 100%
- 1N-G2S2 (hemi-glycosylated) (Herceptin-GlcNAc): 4.8%
- 2N-G2S2 (fully glycosylated) (Herceptin-GlcNAc): 91.85%
- GlcNAc(F) (unreacted acceptor) (Herceptin-GlcNAc): 3.35%
- 1N-Glycan (Herceptin-GlcNAc; glycan G0, 20:1): 2.58%
- 2N-Glycan (Herceptin-GlcNAc; glycan G0, 20:1): 96.50%
- GlcNAc(F) (Herceptin-GlcNAc; glycan G0, 20:1): 0.91%
- 1N-Glycan (Herceptin-GlcNAc; glycan G2, 20:1): 4.52%
- 2N-Glycan (Herceptin-GlcNAc; glycan G2, 20:1): 94.87%
- GlcNAc(F) (Herceptin-GlcNAc; glycan G2, 20:1): 0.61%
- 1N-Glycan (Herceptin-GlcNAc; glycan M3 (40eq)): 6.51%
- 2N-Glycan (Herceptin-GlcNAc; glycan M3 (40eq)): 92.37%
- GlcNAc(F) (Herceptin-GlcNAc; glycan M3 (40eq)): 1.11%
